How the values were obtained:
[1] = biological target: T1, GAL4 activation domain fusion to HAB1 V393K (Arabidopsis thaliana (Mouse-ear cress), UniProt Q9CAJ0 4-511); assay: Y2H, beta-gal staining
T1 construct: Mutant of the pACT-HAB1 template, which lacks the three N-terminal amino acids of HAB1
T1 sequence: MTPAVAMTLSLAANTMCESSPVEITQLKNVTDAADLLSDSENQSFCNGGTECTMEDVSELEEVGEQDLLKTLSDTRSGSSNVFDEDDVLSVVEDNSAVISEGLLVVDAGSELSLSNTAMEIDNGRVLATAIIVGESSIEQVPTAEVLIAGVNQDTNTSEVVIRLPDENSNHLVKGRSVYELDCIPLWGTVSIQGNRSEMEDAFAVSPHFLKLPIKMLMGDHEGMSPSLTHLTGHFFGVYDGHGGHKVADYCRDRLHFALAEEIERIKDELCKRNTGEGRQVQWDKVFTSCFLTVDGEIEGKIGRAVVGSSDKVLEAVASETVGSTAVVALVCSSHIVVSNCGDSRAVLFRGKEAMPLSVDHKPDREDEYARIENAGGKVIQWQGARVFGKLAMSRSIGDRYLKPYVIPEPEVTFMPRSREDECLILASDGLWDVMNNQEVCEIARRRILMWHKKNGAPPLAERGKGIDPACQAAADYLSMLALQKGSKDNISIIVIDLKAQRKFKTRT

[2] = biological target: T2, GAL4 activation domain fusion to HAB1 I383G (Arabidopsis thaliana (Mouse-ear cress), UniProt Q9CAJ0 4-511); assay: Y2H, beta-gal staining
T2 construct: Mutant of the pACT-HAB1 template, which lacks the three N-terminal amino acids of HAB1
T2 sequence: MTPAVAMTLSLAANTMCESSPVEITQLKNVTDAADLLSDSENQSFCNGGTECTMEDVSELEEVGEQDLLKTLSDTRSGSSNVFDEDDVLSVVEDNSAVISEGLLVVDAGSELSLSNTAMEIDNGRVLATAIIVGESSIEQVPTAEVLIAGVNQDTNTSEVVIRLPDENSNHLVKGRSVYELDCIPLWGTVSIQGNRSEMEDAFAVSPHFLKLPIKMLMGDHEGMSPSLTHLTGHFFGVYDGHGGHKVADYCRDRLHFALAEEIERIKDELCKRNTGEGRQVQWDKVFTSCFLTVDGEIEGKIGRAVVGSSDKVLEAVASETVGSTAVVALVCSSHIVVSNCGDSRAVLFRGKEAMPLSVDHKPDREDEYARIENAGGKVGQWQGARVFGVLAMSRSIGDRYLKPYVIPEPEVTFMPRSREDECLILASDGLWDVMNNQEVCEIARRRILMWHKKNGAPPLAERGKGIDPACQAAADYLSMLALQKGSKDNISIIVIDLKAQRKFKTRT

B1: GAL4 DNA binding domain fusion to PYR1 (pBD-PYR1), wild type (receptor)
chain: MKLLSSIEQACDICRLKKLKCSKEKPKCAKCLKNNWECRYSPKTKRSPLTRAHLTEVESRLERLEQLFLLIFPREDLDMILKMDSLQDIKALLTGLFVQDNVNKDAVTDRLASVETDMPLTLRQHRISATSSSEESSNKGQRQLTVSMPSELTPEERSELKNSIAEFHTYQLDPGSCSSLHAQRIHAPPELVWSIVRRFDKPQTYKHFIKSCSVEQNFEMRVGCTRDVIVISGLPANTSTERLDILDDERRVTGFSIIGGEHRLTNYKSVTTVHRFEKENRIWTVVLESYVVDMPEGNSEDDTRMFADTVVKLNLQKLATVAEAMARNSGDGSGSQVT
notes: Yeast two-hybrid bait expressed in S. cerevisiae; also called WT
binding result [1]: no binding (tested: 10 µM ABA)
binding result [2]: no binding (tested: 10 µM ABA)
